Positions count from the first letter of the chain named. Names and notes keep the numbering of the source. “Also recorded” adds a separate entry of the source.

The nature of assay [1]: Mobility shift assay of complex formation of proteases with CSA. Type of assay: binding. The method, then: The gel was run at about 25° C. 55 V, 250 mA for 30 min, then dried and developed the radio signal on a film.
For the next assay, the system named is gelatin. The assay is described as follows: Gelatin hydrolysis by cathepsin K mutant proteins. Type of assay: biochemical.
Another assay deals with type I collagen. The experiment in a line: Type I collagen hydrolysis by cathepsin K mutant proteins. Type of assay: biochemical, bovine. The settings on record: 800 nM protein, 0.4 mg/ml collagen, 0.15% CSA, 8 h at 28 C, pH 5.5. As to the method:
(§1) The mutant proteins were generated to characterize cluster 1:K77A, R79A (mutant 1), K103, K106A, R108A, R111A, (mutant 2), K77A, R79A, K103, K106A, R108A,R111A (mutant 3), K77A, R79A, K103, K106A, R108A,R111A, K122A, R127A (mutant 4). Mutant proteins were expressed in Pichia pastoris and the activity of the protein was determined towards two synthetic peptide substrates, gelatin and type I native collagen. […] The cleavage products were separated by SDS polyacrylamide electrophoresis using 4-20% Tris Glycine gels.

Assay [2] in a line: Activity of cathepsin K mutant proteins towards synthetic peptide substrates. In kind it is biochemical. The conditions noted are these: Example 17 mutants. The method, then:
as §1

B1: Y212C: pycnodysostosis-causing cathepsin K mutant (protein, UniProt P43235 115-329, looked up, variant Y212C)
Cathepsin K: APDSVDYRKKGYVTPVKNQGQCGSCWAFSSVGALEGQLKKKTGKLLNLSPQNLVDCVSENDGCGGGYMTNAFQYVQKNRGIDSEDAYPYVGQEESCMCNPTGKAAKCRGYREIPEGNEKALKRAVARVGPVSVAIDASLTSFQFYSKGVYYDESCNSDNLNHAVLAVGYGIQKGNKHWIIKNSWGENWGNKGYILMARNKNNACGIANLASFPKM
In the case of B1, the “complex formation with CSA” value in assay [1] (0.2 μg/ml and 1000 μg/ml CSA) is “unable to form a complex with CSA”. The “gelatin hydrolysis by the protease” value in the assay with gelatin (1 nM Y212C, 0.15% CSA, 37 C for 8 h) is recorded as “exhibited gelatinase activity”.

B2: mutant 1: cathepsin K mutant K77A, R79A (protein, UniProt P43235 115-329, looked up, variant K77A R79A)
Cathepsin K: B1 Cathepsin K with K77A, R79A, C98Y
Regarding B2, the “degradation of type I collagen by the protease” value with type I collagen is reported as “complete degradation of type I collagen”; with type I collagen (listed as Mutant 1), “did not reveal an inhibition”.

B3: mutant 5: cathepsin K mutant K9E (protein, UniProt P43235 115-329, looked up, variant K9E)
Cathepsin K: B1 Cathepsin K with K9E, C98Y
Take B3: the “activity towards synthetic peptide substrates compared with wild type” value in assay [2] is “fully active”. The “complex formation with CSA” value in assay [1] (Example 17 mutants, gel-mobility assay) is given as “still revealed complex formation”. Moreover, the “degradation of type I collagen by the protease” value with type I collagen is on record as “strongly inhibited; also recorded: significantly reduced”. The “activity towards gelatin compared with wild type” value in the assay with gelatin (Example 17 mutants) is listed as “fully active”.

B4: Cat S: human cathepsin S, closely related cysteine protease (protein, UniProt P25774 115-331, looked up)
Cathepsin S: LPDSVDWREKGCVTEVKYQGSCGACWAFSAVGALEAQLKLKTGKLVSLSAQNLVDCSTEKYGNKGCNGGFMTTAFQYIIDNKGIDSDASYPYKAMDQKCQYDSKYRAATCSKYTELPYGREDVLKEAVANKGPVSVGVDARHPSFFLYRSGVYYEPSCTQNVNHGVLVVGYGDLNGKEYWLVKNSWGHNFGEEGYIRMARNKGNHCGIASFPSYPEI
In the case of B4, the “complex formation with CSA” value in assay [1] (50 ng [125I]DCG-04 labeled protease, 0.1% CSA) is “Only cathepsin K formed a stable complex”.
